Reference: patent US20250000946A1 (WUXI BIOLOGICS IRELAND, published 2025)

B1: W3XX115-T2U0.E44-34.uIgG4V322 (Fc fusion)
chain: APTSSSTKKTQLQLEHLLLDLQMILNGINNYKNPKLTRMLTFKFYMPKKATELKHLQCLEEELKPLEEVLNLAQSKNFHLRPRDLISNINVIVLELKGSETTFMCEYADETATIVEFLNRWITFCQAIIESKYGPPCPPCPAPEAAGGPSVFLFPPKPKDTLMISRTPEVTCVVVDVSQEDPEVQFNWYVDGVEVHNAKTKPREEQFNSTYRVVSVLTVLHQDWLNGKEYKCKVSNKGLPSSIEKTISKAKGQPREPQVYTLPPCQEEMTKNQVSLWCLVKGFYPSDIAVEWESNGQPENNYKTTPPVLDSDGSFFLYSRLTVDKSRWQEGNVFSCSVMHEALHNHYTQKSLSLSLG
heavy: EIQLQQSGPELVKPGASVKVSCKASGYSFTDYNMYWVKQSHGESLEWIGYIDPYNGGTRYNQKFKGKATLTVDKSSSTAFMHLNSLTSEDSAVYYCARNGHWDGAWFAYWGQGTLVTVSAASTKGPSVFPLAPCSRSTSESTAALGCLVKDYFPEPVTVSWNSGALTSGVHTFPAVLQSSGLYSLSSVVTVPSSSLGTKTYTCNVDHKPSNTKVDKRVESKYGPPCPPCPAPEAAGGPSVFLFPPKPKDTLMISRTPEVTCVVVDVSQEDPEVQFNWYVDGVEVHNAKTKPREEQFNSTYRVVSVLTVLHQDWLNGKEYKCKVSNKGLPSSIEKTISKAKGQPREPQVCTLPPSQEEMTKNQVSLSCAVKGFYPSDIAVEWESNGQPENNYKTTPPVLDSDGSFFLVSRLTVDKSRWQEGNVFSCSVMHEALHNHYTQKSLSLSLG
light: DIQMNQSPSSLSASLGDTITITCHASQNINVWLSWYQQKPGNIPKLLIYKASNLHTGVPSRFSGSRSGTGFTLTISSLQPEDIATYYCHQGQSYPFTFGSGTKLEIKRTVAAPSVFIFPPSDEQLKSGTASVVCLLNNFYPREAKVQWKVDNALQSGNSQESVTEQDSKDSTYSLSSTLTLSKADYEKHKVYACEVTHQGLSSPVTKSFNRGEC
notes: IL-2 del STLT and S127A; E44 format, IgG4 FALA
B2: W3XX115-T2U0.E44-37.uIgG4V322 (Fc fusion)
chain: APTSSSTKKTQLQLEHLLLDLQMILNGINNYKNPKLTRMLTFKFYMPKKATELKHLQCLEEELKPLEEVLNLAQSKNFHLRPRDLISNINVIVLELKGSETTFMCEYADETATIVEFLNRWITFCQNISESKYGPPCPPCPAPEAAGGPSVFLFPPKPKDTLMISRTPEVTCVVVDVSQEDPEVQFNWYVDGVEVHNAKTKPREEQFNSTYRVVSVLTVLHQDWLNGKEYKCKVSNKGLPSSIEKTISKAKGQPREPQVYTLPPCQEEMTKNQVSLWCLVKGFYPSDIAVEWESNGQPENNYKTTPPVLDSDGSFFLYSRLTVDKSRWQEGNVFSCSVMHEALHNHYTQKSLSLSLG
heavy: EIQLQQSGPELVKPGASVKVSCKASGYSFTDYNMYWVKQSHGESLEWIGYIDPYNGGTRYNQKFKGKATLTVDKSSSTAFMHLNSLTSEDSAVYYCARNGHWDGAWFAYWGQGTLVTVSAASTKGPSVFPLAPCSRSTSESTAALGCLVKDYFPEPVTVSWNSGALTSGVHTFPAVLQSSGLYSLSSVVTVPSSSLGTKTYTCNVDHKPSNTKVDKRVESKYGPPCPPCPAPEAAGGPSVFLFPPKPKDTLMISRTPEVTCVVVDVSQEDPEVQFNWYVDGVEVHNAKTKPREEQFNSTYRVVSVLTVLHQDWLNGKEYKCKVSNKGLPSSIEKTISKAKGQPREPQVCTLPPSQEEMTKNQVSLSCAVKGFYPSDIAVEWESNGQPENNYKTTPPVLDSDGSFFLVSRLTVDKSRWQEGNVFSCSVMHEALHNHYTQKSLSLSLG
light: DIQMNQSPSSLSASLGDTITITCHASQNINVWLSWYQQKPGNIPKLLIYKASNLHTGVPSRFSGSRSGTGFTLTISSLQPEDIATYYCHQGQSYPFTFGSGTKLEIKRTVAAPSVFIFPPSDEQLKSGTASVVCLLNNFYPREAKVQWKVDNALQSGNSQESVTEQDSKDSTYSLSSTLTLSKADYEKHKVYACEVTHQGLSSPVTKSFNRGEC
notes: IL-2 del STLT, S127N and I129S (glycosylation design); E44 format, IgG4 FALA
B3: W3XX115-T2U0.E44-38.uIgG4V322 (Fc fusion)
chain: APTSSSTKKTQLQLEHLLLDLQMILNGINNYKNPKLTRMLTFKFYMPKKATELKHLQCLEEELKPLEEVLNLAQSKNFHLRPRDLISNINVIVLELKGSETTFMCEYADETATIVEFLNRWITFAQSIIESKYGPPCPPCPAPEAAGGPSVFLFPPKPKDTLMISRTPEVTCVVVDVSQEDPEVQFNWYVDGVEVHNAKTKPREEQFNSTYRVVSVLTVLHQDWLNGKEYKCKVSNKGLPSSIEKTISKAKGQPREPQVYTLPPCQEEMTKNQVSLWCLVKGFYPSDIAVEWESNGQPENNYKTTPPVLDSDGSFFLYSRLTVDKSRWQEGNVFSCSVMHEALHNHYTQKSLSLSLG
heavy: EIQLQQSGPELVKPGASVKVSCKASGYSFTDYNMYWVKQSHGESLEWIGYIDPYNGGTRYNQKFKGKATLTVDKSSSTAFMHLNSLTSEDSAVYYCARNGHWDGAWFAYWGQGTLVTVSAASTKGPSVFPLAPCSRSTSESTAALGCLVKDYFPEPVTVSWNSGALTSGVHTFPAVLQSSGLYSLSSVVTVPSSSLGTKTYTCNVDHKPSNTKVDKRVESKYGPPCPPCPAPEAAGGPSVFLFPPKPKDTLMISRTPEVTCVVVDVSQEDPEVQFNWYVDGVEVHNAKTKPREEQFNSTYRVVSVLTVLHQDWLNGKEYKCKVSNKGLPSSIEKTISKAKGQPREPQVCTLPPSQEEMTKNQVSLSCAVKGFYPSDIAVEWESNGQPENNYKTTPPVLDSDGSFFLVSRLTVDKSRWQEGNVFSCSVMHEALHNHYTQKSLSLSLG
light: DIQMNQSPSSLSASLGDTITITCHASQNINVWLSWYQQKPGNIPKLLIYKASNLHTGVPSRFSGSRSGTGFTLTISSLQPEDIATYYCHQGQSYPFTFGSGTKLEIKRTVAAPSVFIFPPSDEQLKSGTASVVCLLNNFYPREAKVQWKVDNALQSGNSQESVTEQDSKDSTYSLSSTLTLSKADYEKHKVYACEVTHQGLSSPVTKSFNRGEC
notes: IL-2 del STLT and C125A; E44 format, IgG4 FALA

Key:
[1] = target: T1, Human IL-2Rα/β/γ complex (high affinity IL-2 receptor) (human, UniProt P01589 22-272; P14784 27-551; P31785 23-369); test: cell-based or functional assay
T1 sequence (looked up) 1: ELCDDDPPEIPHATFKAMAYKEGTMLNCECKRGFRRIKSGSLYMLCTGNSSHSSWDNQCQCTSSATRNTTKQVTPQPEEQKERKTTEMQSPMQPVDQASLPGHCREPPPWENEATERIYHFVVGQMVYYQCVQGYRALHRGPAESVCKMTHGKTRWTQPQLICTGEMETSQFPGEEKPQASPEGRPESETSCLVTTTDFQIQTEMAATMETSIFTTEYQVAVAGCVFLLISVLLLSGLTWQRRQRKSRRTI
T1 sequence (looked up) 2: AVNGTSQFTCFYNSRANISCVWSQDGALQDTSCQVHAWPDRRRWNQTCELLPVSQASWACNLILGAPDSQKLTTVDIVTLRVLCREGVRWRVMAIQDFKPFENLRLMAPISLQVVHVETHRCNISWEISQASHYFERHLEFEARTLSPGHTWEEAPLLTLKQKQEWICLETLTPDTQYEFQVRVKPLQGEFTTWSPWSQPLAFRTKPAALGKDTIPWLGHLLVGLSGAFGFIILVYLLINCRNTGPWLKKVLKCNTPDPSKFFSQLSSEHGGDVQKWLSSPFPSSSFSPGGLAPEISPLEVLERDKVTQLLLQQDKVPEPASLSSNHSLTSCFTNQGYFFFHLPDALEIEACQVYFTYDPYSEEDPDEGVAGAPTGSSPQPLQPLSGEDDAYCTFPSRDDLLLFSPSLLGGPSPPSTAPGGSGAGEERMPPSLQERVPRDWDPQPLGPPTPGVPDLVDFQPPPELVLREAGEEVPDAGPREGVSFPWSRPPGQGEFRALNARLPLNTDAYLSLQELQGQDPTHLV
T1 sequence (looked up) 3: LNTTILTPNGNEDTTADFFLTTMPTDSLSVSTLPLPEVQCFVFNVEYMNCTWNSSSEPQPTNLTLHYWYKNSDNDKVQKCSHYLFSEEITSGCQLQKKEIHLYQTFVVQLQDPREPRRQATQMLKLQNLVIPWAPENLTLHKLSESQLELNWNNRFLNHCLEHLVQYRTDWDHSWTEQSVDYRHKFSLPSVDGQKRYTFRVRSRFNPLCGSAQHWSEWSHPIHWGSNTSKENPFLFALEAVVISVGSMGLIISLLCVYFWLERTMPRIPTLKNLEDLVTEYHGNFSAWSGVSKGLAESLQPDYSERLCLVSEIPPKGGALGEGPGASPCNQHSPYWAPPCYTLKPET

[2] = target: T2, Human IL-2Rβ/γ (intermediate affinity IL-2 receptor) (human, UniProt P14784 27-551; P31785 23-369); test: cell-based or functional assay
T2 sequence (looked up) 1: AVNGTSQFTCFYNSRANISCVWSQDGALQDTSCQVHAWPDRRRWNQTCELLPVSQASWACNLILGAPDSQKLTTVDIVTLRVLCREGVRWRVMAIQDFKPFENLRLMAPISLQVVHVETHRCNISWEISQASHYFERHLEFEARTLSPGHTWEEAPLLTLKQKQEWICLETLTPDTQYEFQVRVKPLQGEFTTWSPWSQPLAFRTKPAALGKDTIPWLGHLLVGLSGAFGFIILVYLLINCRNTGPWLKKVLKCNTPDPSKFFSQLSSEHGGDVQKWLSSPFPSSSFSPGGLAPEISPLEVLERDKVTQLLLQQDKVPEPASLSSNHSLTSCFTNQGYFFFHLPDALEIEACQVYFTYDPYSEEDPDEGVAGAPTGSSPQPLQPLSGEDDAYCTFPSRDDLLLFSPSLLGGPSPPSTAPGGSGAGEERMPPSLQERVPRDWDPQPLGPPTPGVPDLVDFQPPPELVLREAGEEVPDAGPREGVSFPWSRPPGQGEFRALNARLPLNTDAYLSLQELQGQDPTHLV
T2 sequence (looked up) 2: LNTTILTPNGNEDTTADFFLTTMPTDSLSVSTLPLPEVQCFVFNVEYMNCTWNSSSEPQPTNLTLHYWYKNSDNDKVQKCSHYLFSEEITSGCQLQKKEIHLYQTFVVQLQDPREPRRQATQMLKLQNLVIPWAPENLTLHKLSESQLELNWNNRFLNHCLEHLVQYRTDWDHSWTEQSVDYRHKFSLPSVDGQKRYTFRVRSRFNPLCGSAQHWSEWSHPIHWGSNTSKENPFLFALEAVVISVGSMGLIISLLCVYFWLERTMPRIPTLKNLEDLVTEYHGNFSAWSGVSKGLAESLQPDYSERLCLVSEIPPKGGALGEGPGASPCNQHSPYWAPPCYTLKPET

[3] = target: T1, Human IL-2Rα/β/γ complex (high affinity …); test: FACS, MJ20 cells; EC50 fold vs T2U0.E44-1
Procedure: (§1) Human cutaneous T cell lymphoma HH cells, malignant non-Hodgkin's lymphoma NK92 cells and cutaneous T cell lymphoma MJ20 cells were used for binding assay. They both constitutively express IL-2Rβ (CD122) and […] (CD132), and NK92 and MJ20 also expresses IL-2Rα (CD25). HH, NK92 and MJ20 cells were cultured following ATCC guidance, then transferred to a 96-plate for binding analysis. Cells were incubated with IL-2/Fc fusion proteins at the indicated concentrations for 30 min at 4° C. to avoid internalization. Binding was detected by 2nd antibody of PE-anti-human Fc at 4° C. for another 30 min. The median fluorescence intensity (MFI) on HH and NK92 cells was measured using FACS.

[4] = target: T1, Human IL-2Rα/β/γ complex (high affinity …); test: FACS, MJ20 cells
Procedure: as §1

[5] = target: T2, Human IL-2Rβ/γ (intermediate affinity …); test: FACS, HH cells
Summary of the method: (§2)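 HH (IL-2Rβ/γ), MJ20 and NK92 (IL-2Rα/β/γ) cells incubated with IL-2/Fc fusion proteins at indicated concentrations, 30 min at 4° C to avoid internalization. Bound protein detected with PE-anti-human Fc, 30 min at 4° C; median fluorescence intensity read by FACS.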

[6] = target: T2, Human IL-2Rβ/γ (intermediate affinity …); test: FACS, HH cells; EC50 fold vs T2U0.E44-1
Summary of the method: as §2

Row | Binder | Potency in human Treg EC50 [1] | Potency reduction (Treg) [1] | Potency in human CD8+ T EC50 [2] | Potency reduction (CD8+ T) [2] | Affinity reduction [3] | EC50 [4] | EC50 [5] | Affinity reduction [6]
1 | B1 | 0.21 nM | 104 fold | 180 nM | 17.7 fold | 1.5 fold | 60.9 nM | 720 nM | 13.7 fold
2 | B2 | 8 nM | 4060 fold | ~17.6 nM |  | 2.1 fold | 87.7 nM |  | 190000 fold
3 | B3 | 5 nM | 2540 fold | 268 nM | 26.3 fold | 4.8 fold | 201 nM |  | 400000 fold
